Source: patent US20110314564A1, “ENZYMES AND METHODS FOR HYDROLYSING PHENYLUREAS, CARBAMATES AND ORGANOPHOSPHATES” (priority 2008, published 2011)

B1: PuhA: phenylurea hydrolase from A. globiformis D47, amino acid sequence SEQ ID NO:3 (protein)
chain: MTTTAITDITLIDGRGGAPERGVTVLVDEDRFSAIGPTATTPIPDGARVVGGAGRWMVPGYVNGNVHLLDAWMFMVGPGTIEYLARWEGRYVEVIEEAAQLVLRNGVTTVFDTYNAIEPVLAARDRINAGTSAGARIFAAGTIVGLGGPFSADFHFIGQQAASRTFVNRIDAMFEAGVGHQLSLLPRNEVRSRVRDYLARGVDMLKIAVSDHIVFTVGFDRSCQTFSRPVLEVMFEEARAAGVPVLTHSVSVEALDTSVDLGADVLIHANYTLGQHIPDYLIDKIAASDSYAGLQTVHHEHREGLERVGSWAATLAGEPYASNERALIRAKAKILMNTDAGCPSKDHLADLSPAEREDRPWTIGGDHFHWTQSIVEKGMTPLEAISAATLNVARAYGKDADIGSVETGKLADFVLLDADPTADIRHLRSISAVYQAGVAVDRGALPTTPLVTAHPA
modifications: Arthrobacter globiformis D47
B2: PuhB: phenylurea hydrolase from Mycobacterium brisbanense JK1, amino acid sequence SEQ ID NO:1 (protein)
chain: MSTIAITNVTLIDGLGGLPRPATTVIVEGDRFATVGPSDSTPVPEGATVVDGNRRWMVPGYVNGNVHLLDAWMFMAGPGTIEYLARWEGRYVEVIEEAAQLALRNGVTTVFDTHNAIEPVLAARDRINAGISQGARIFAAGTIVGMGGPFSADFHFAGRTAATRTFVDRIDSMFEAGVGHQLSLLPRKEVRARVRDYLSRGVDMLKIAVSDHIVFTLVDRSVGFDRSYQTFSRPVLEVMVEEARAAGVPVLTHSVSVEALDTSVELGADVLIHANYTLGQEIPNYLIDKIVASDSWAGLQTVHDQHRQGLEDVGSWAAALAGEPYATNERNLISANAKILLNTDAGCPSKDHLADLSPVEREDRPWTIGNDHFHWTQSMVEKGMSPLEAISAATINVARAYGKADQIGSVETGKLADFVLLDQDPVDDIRNLRSITEVFQAGAAVDRAALPTTPLVTAHPA
modifications: Mycobacterium brisbanense JK1

Tests used:
[1] = tested on: Mycobacterium brisbanense strain JK1; experiment: Degradation of diuron and accumulation of DCA in liquid culture; format: cell-based; settings: alternate nitrogen source present
Description: MM (50 mL) supplemented with 10 mM glucose, 0.13 mM diuron and 18.7 mM ammonium chloride (as required) were inoculated with 0.2% of a homogeneous suspension of freshly grown M. brisbanense strain JK1 cells (0D600=˜10). Cultures were incubated at 28° C. with shaking at 200 rpm, in the dark. Samples were taken at ˜24 hour intervals, and metabolites were extracted in 50% acetonitrile, filtered and analysed by HPLC.

[2] = molecular target: PuhB (Mycolicibacterium brisbanense, UniProt B8R4K0); experiment: Hydrolysis of phenylurea, carbamate and organophosphate substrates by purified PuhB (LCMS / FBBS / A400 assays); settings: PuhB
[3] = neutral buffer; estimated from the work of Salvestrini et al. (2002); cited from earlier work
[4] = Thermal stability: residual activity after 10 minutes pre-incubation, Boltzmann fit; format: biochemical; settings: for residual activity after incubation (in words): 10 minutes incubation at 40° C.; for Tm indicating 50% activity retained: 10 minutes pre-incubation, then 1 hour assay at 25° C.
Description: (§1) The influence of solvents (acetonitrile and methanol) was examined by using 7 concentrations from 0.4-18.2% over 1 hour duplicate assays with 77 μM diuron and monitored by LCMS. The effect of temperature on the activity of the enzymes was determined in two ways: firstly, the temperature at which reaction was catalysed was controlled at 12 temperatures ranging from 2-60° C. with 154 μM diuron; secondly, enzyme was preincubated at 6 temperatures from 30-55° C. for 10 minutes prior to 1 hour assays at 25° C. The residual activity data was obtained by LCMS and fitted to the Boltzmann function (eq 1)
(§2) A bell shaped model (eq 2)

[5] = pH dependence of kcat, kcat/Km and Km with diuron in constant ionic strength buffer; format: biochemical; settings: for pKe1 / pKes1: acidic shoulder; for pKe2 / pKes2: basic shoulder; for pKe of the decrease in catalytic efficiency: basic side
Text: as §2
(§3) was used to fit an activity y, either log(kcat) and log(kcat/Km) vs. pH. (y)^max is the plateau value and pKa^1 and pKa^2 are the apparent pKa values for the acidic and basic groups, respectively. Equations were fitted to the data using Kaleidagraph v3.6 (Synergy Software). The substrate pKa values were obtained via an online database www.syrres.com/esc/physdemo.htm (Syracuse Research Corporation).

[6] = Activity of native PuhA and PuhB at each purification step (DCA formation); format: biochemical
Text: (§4) Protein concentration was estimated using the Bio-rad protein assay (Bradford), with bovine serum albumin used as standard. Protein purity was monitored using sodium dodecyl sulphate-polyacrylamide gel electrophoresis (SDS-PAGE) stained with Coomassie brilliant blue. Where PuhA and B concentrations were estimated in semi purified extracts, SDS-PAGE gels were scanned using Labscan v5 (Amersham Biosciences) and band densitometry performed with Total lab TL100 (Nonlinear dynamics). Talon cobalt resin (BD Biosciences) was used for the purification of hexa-histidine tagged protein. Untagged protein was purified by ammonium sulfate (AS) precipitiation followed by hydrophobic interaction chromatography (HIC; Phenylsepharose), anion exchange chromatography (AEX; Macro Q) and size exclusion chromatography (SEC; Superose 6 or Sephadex 200). All columns were purchased from GE Healthcare. The hydrophobic interaction column was equilibrated with Tris (pH 8)/1 M ammonium sulfate and bound protein was then eluted with Tris (pH 8) over 400 mL. Protein was bound to the anion exchange column with Tris (pH 8) and eluted with a gradient of Tris (pH 8)/1 M NaCl over 500 mL. The buffer was exchanged to 25 mM HEPES/50 mM KCl (pH 8) during SEC and the protein was stable in this buffer at 4° C. for several weeks. The oligomeric structure was estimated with a Superose 6 size exclusion column calibrated with the following protein standards (kDa): thyroglobulin (669), ferritin (440), catalase (232) and aldolase (158). Standard tryptic peptide mass fingerprinting was used to confirm the identity of proteins excised from polyacrylamide gels by liquid chromatography electro spray ionisation mass spectroscopy/mass spectroscopy (LC ESI MS/MS) ion trap following the method of Campbell et al. (2008).

[7] = Stability in the presence of the solvents acetonitrile and methanol; format: biochemical; settings: 1-18% v/v solvent
Description: as §1

[8] = Activity of PuhA and PuhB expressed in M. smegmatis at each purification step (PNP release); format: biochemical
Description: (§5) Pwo polymerase (Roche) and restriction enzymes NdeI, BamHI and HindIII (Fermentas) were used following manufacturers' protocols. Electro-competent E. coli strains JM109 (Promega) were utilised for transformation of ligation reactions (using Promega ligase). Protein expressions in E. coli were inoculated (1% v/v) with an overnight seed culture in LB and then incubated with shaking at 20° C. for 11 hours followed by induction with 0.1 mM isopropyl-β-D-thiogalactopyranoside (IPTG) for 3 hours. M. smegmatis expressions were amended with 0.05% tween 80 and grown in LB at 28° C. for 2-4 days with no induction. Clarified cell-free extracts were obtained by resuspending the bacteria in 25 mM Tris (pH 8) followed by 3 passes through a French pressure cell (Thermo) and centrifugation at 27,000 g (Beckman Avanti).
as §4

[9] = Diuron hydrolase activity in the soluble fraction of recombinant expression hosts; format: biochemical
Text: PuhA and PuhB were amplified as N-hexa-histidine tagged fusions from pET14b (Novagen) in E. coli rosetta II cells (Novagen) and pMV261 (Stover et al., 1991) in M. smegmatis mc2. Protein without hexa-histidine tags was later expressed in M. smegmatis mc2. The PCR primers used in these cloning procedures are noted in Table 2 (SEQ ID NOs 5 to 13).
as §5

[10] = Bronsted plots (pKa of leaving group vs log kcat) for N-dimethyl phenylureas; format: biochemical; settings: slope between pKa 4-5
Text: as §3

[11] = expressed in E. coli Rosetta 2 DE3 from pET14b
[12] = expressed in M. smegmatis from pMV261

| Molecule | residual activity after incubation (in words) [4] | Tm indicating 50% activity retained [4] | pKe1 [5] | pKes1 [5] | pKe2 [5] | pKes2 [5] | pKe of the decrease in catalytic efficiency [5] | Activity (nmol DCA/μg/hour) ([6]; AS (ammonium sulfate)) | Activity (nmol DCA/μg/hour) ([6]; CFE (cell free extract)) | Activity (nmol DCA/μg/hour) ([6]; HIC) | Activity (nmol DCA/μg/hour) ([6]; SEC) | activity in the presence of methanol and acetonitrile (in words) [7] | Activity (mM PNP/mg/min) ([8]; AEX) | Activity (mM PNP/mg/min) ([8]; CFE) | Activity (mM PNP/mg/min) ([8]; HIC) | Activity (mM PNP/mg/min) ([8]; SEC) | activity in the soluble fraction (in words) [9, 12] | βlg [10] | also measured |
| --- | --- | --- | --- | --- | --- | --- | --- | --- | --- | --- | --- | --- | --- | --- | --- | --- | --- | --- | --- |
| CN(C)C(=O)Nc1ccc(Cl)c(Cl)c1 [diuron, N′-3,4-dichlorophenyl N-dimethylurea] | – | – | – | – | – | – | – | – | – | – | – | – | – | – | – | – | – | – | degradation of diuron (loss of diuron, accumulation of DCA) [1]: degradation of diuron was confirmed; kcat [2]: 0.48 s⁻¹; rate enhancement kcat/knon ([2]; diuron): 1.7×10^9; knon [3]: 2.8e-10 s⁻¹ |
| B1 | retaining significant activity | 46.6 °C | 4.2 | 5.1 | 8.9 | 10.2 | ~10 | 0.18 nmol DCA/μg/hour | 0.05 nmol DCA/μg/hour | 0.73 nmol DCA/μg/hour | 2.79 nmol DCA/μg/hour | significantly inhibited | 6.2 mM PNP/mg/min | 0.3 mM PNP/mg/min | 4.3 mM PNP/mg/min | 7.8 mM PNP/mg/min | comparable to that measured in the native expressions | −1.6 | Estimated specific activity (mol/mol/min) ([6]; HIC): 10.20 mol/mol/min; Estimated specific activity (mol/mol/min) ([6]; SEC): 7.02 mol/mol/min; specific activity in the soluble fraction, fold lower compared to the native expression [9, 11]: ~10 fold |
| B2 | retaining significant activity | 46.0 °C | 5.0 | 5.0 | 9.6 | 10.6 | ~10 | 0.24 nmol DCA/μg/hour | 0.05 nmol DCA/μg/hour | 0.24 nmol DCA/μg/hour | 0.04 nmol DCA/μg/hour | significantly inhibited | 3.9 mM PNP/mg/min | 0.1 mM PNP/mg/min | 1.4 mM PNP/mg/min | 4.3 mM PNP/mg/min | displayed diuron hydrolase activity | −1.1 | activity in the soluble fraction (in words) [9, 11]: no activity was detected |
